From PMC3920632, “bkaR is a TetR-type repressor that controls an operon associated with branched-chain keto-acid metabolism in Mycobacteria”

How the values were obtained:
His6-BkaRMtb [1] = target: T1, His6-BkaRMtb (Mycobacterium tuberculosis H37Rv, UniProt O06169 1-215); test: EMSA; 20 mM HEPES pH 7.6, 1 mM EDTA, 10 mM ([…]; temperature not stated; conditions: protein: recombinant, tags: His6 (pNIC28-Bsa4, GenBank EF198106), chain copies: 2, blunt
T1 sequence: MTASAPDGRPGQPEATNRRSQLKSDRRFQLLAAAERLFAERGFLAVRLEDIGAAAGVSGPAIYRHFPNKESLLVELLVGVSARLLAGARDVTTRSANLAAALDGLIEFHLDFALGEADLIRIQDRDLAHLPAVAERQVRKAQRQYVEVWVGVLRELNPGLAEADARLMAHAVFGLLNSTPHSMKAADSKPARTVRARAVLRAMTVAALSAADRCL

His6-BkaRMtb [2] = target: T1, His6-BkaRMtb; test: EMSA; 0.6 uM protein, 0.06 uM DNA; 20 mM HEPES pH 7.6, 1 mM EDTA, 10 mM ([…]; temperature not stated; conditions: protein: recombinant; tags: His6 (pNIC28-Bsa4, GenBank EF198106); chain copies: 2; blunt

B1: MSMEG_4524 motif probe (dsDNA)
DNA 1: CAGCAAGTAAATGTAGCCTAACCTAGCTACG
DNA 2: CGTAGCTAGGTTAGGCTACATTTACTTGCTG
binding result (His6-BkaRMtb [1]): no binding

B2: MSMEG_3414 motif probe (dsDNA)
DNA 1: TCGGTCCAGGTTAGCCAAAACTATTTCAGAA
DNA 2: TTCTGAAATAGTTTTGGCTAACCTGGACCGA
binding result (His6-BkaRMtb [1]): no binding

B3: Rv0575c motif probe (dsDNA)
DNA 1: ACGCCAATACGTTAGCGCTCACTAACGTATTG
DNA 2: CAATACGTTAGTGAGCGCTAACGTATTGGCGT
binding result (His6-BkaRMtb [1]): no binding

B4: Rv0576 motif probe (dsDNA)
DNA 1: GATCAATACGTTAGTGAGCGCTAACGTATT
DNA 2: AATACGTTAGCGCTCACTAACGTATTGATC
binding result (His6-BkaRMtb [1]): no binding

B5: scoA motif probe (dsDNA)
DNA 1: CTCACCTCAGTTAATGATAATTAACTGAAA
DNA 2: TTTCAGTTAATTATCATTAACTGAGGTGAG
binding result (His6-BkaRMtb [2]): binds

B6: MSMEG_3415 motif probe (dsDNA)
DNA 1: TACTTCTGAAATAGTTTTGGCTAACCTGGAC
DNA 2: GTCCAGGTTAGCCAAAACTATTTCAGAAGTA
binding result (His6-BkaRMtb [1]): no binding

B7: probe 1 (bkaRMtb/fadD35) (dsDNA)
DNA 1: TCGTGCTACGTTAGTGACGATTAACCGAAG
DNA 2: CTTCGGTTAATCGTCACTAACGTAGCACGA
binding result (His6-BkaRMtb [1]; label: DIG-11-ddUTP 3' end): binds

B8: MSMEG_4920 motif probe (dsDNA)
DNA 1: GCTGTGTTAACGATGATTAACCGGCACAGC
DNA 2: GCTGTGCCGGTTAATCATCGTTAACACAGC
binding result (His6-BkaRMtb [2]): binds
